Reference: paper PMC12708450, “Targeting tumor-infiltrating regulatory T cells: combining CD47 and PD-L1 inhibition via a novel aptamer-siRNA chimera”

Target: PD-L1 (recombinant human) (Homo sapiens, UniProt Q9NZQ7 19-238)
Experiment: ELONA; 1:1 hyperbolic fit; ELONA: PD-L1 coated in PBS at 4 C overnight; blocked with PBS, 0.1% Tween 20, 1% BSA; wash PBS, 1 mM MgCl2, 0.1% Tween 20, 0.1% BSA; oligo heated 95 C 10 min then on ice 10 min; binding 45 min at room temperature; pH not stated
Details: protein: recombinant; label: biotin (ELONA)

Chain of PD-L1 (recombinant human) (Q9NZQ7 19-238): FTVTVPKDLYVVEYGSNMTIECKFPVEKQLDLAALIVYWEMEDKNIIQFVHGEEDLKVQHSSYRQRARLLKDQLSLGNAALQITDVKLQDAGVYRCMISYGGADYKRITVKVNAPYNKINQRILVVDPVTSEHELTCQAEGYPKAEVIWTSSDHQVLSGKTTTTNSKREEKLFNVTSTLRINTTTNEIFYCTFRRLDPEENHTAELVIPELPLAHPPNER

B1: PD-L1 aptamer (structured_DNA)
DNA: ACCGACCGTGCTGGACTCATCTCGCTTTTTTCACGGTCCACACTACTATGAGCGAGCCTGGCG
Kd: 108 nM
